{
  "source": "the DeepSol protein solubility set",
  "data": [
    {"assay": "soluble on expression in E. coli; label from the status in PepcDB or PDB records", "values": [
      {"sequence": "MGSDKIHHHHHHMLKINQVKLTQVNLAQINTAKVNTIPAKVVHKMMKKVVITTLIAMNLMQVSFAADVVEKNETKVVAKPVKVAPVLNMPMAAKTELNATLYSRSHIPITASLNARVDYLVEPGDFVAQGDKLAGMDLLPIQLRQAEQKAQISRARINVAYIKNELSRLQALSKTQAVSQFKLDQMRSEHDLAAADLEIAQLKLAQINEQLSRAIITAPFAGIITERLIRVGSEVNRGDILLRLLDTEHLEARLYIPIKYLAFINKGDKLSMSASDQKTLAAVTAKIPRADPRSQTFEVRLNIPKAFNKHWAAGQLVSVSVPTQKATASLTVPRDALILRKSGSYVIKVNADNTVSRLAVVVGKGNKERVAITGSLKHGDNVAIRGAERLADGDKVVIQ", "soluble on expression in E. coli": "not soluble"},
      {"sequence": "VKSKAKKTVDKHSDEYKIRRERNNIAVRKSRDKAKMRNLETQHKVLELTAENERLQKKVEQLSRELSTLRNLFKQLPEPLLASSGHC", "soluble on expression in E. coli": "soluble"},
      {"sequence": "MAIRVIGTGFGRTGTDSMREALTILGFGPCHHMSEVMGNEDQKRLWRALAKGAAPDWNQLFAGYASCIDWPSAHYWRDLIEFYPKARVILTYRSPESWWASFEKTILAGISQSTDQESLGLALISRQVFDGRPHDRANAIAVYEANVRAVIATVPPSRLLVHNLGDGWKPLCLHLDVPLEHHHHHH", "soluble on expression in E. coli": "not soluble"},
      {"sequence": "MSTQEVNITLTDFINQLDSNAEQVSFEQVMKVISENYNYLPATFNNGDLFNEAGTNEGSCKIFYFAKLNNLSEQQTLACFGRFYREDVVNNPQGNDHGNIRNFMQSGWSKVEFNSVALTPLT", "soluble on expression in E. coli": "not soluble"},
      {"sequence": "MDSVVSDVSDLVEPDEELKAWQTDRTRAPIATKIVVAGGFGAGKTTLVTAVSEITPLQTEALMTQASEDTDDLTGTPDKLTTTVAMDFGRITLDDDLVLYLFGTPGQQRFWFMWDDLVRGAIGAVVLADTRRLSDCFPALDYFESCGLPYVVAVNHFDGSEKFEPEDVREALTVPAHIPVMIMDARRRISVIETLLALVGHALEVSPELEHHHHHH", "soluble on expression in E. coli": "soluble"},
      {"sequence": "MGSDKIHHHHHHMETREQAKFFHLDEFSGLSLLQASYHRQRFARHVHETFCIGVIEEGVQRFYRTGGEHVAPKGDIILVNADEIHTGSPGVETGWAYRAIYPHPDLMLLLSRDLINANGTVPWFPEAVVHDPGLAEQFRLVFNLLTRDGDRLLKESLLLSSIASLVMRHGRTPAFARELPSVGQPLRIIKDLIASCPEEDYSLTQLAEMAHLSPWHFLRQFKKQVGLPPHAWLIQARLKRARQLLRRGLPIPVVAARCRFSDQSHFNRHFKSSFGITPGEFIRTLPSLSA", "soluble on expression in E. coli": "not soluble"},
      {"sequence": "MVDQAQDTLRPNNRLSDMQATMEQTQAVENRVLERLNAGKTVRSFLITAVELLTEAVNLLVLQVFRKDDYAVKYAVEPLLDGDGPLGDLSVRLKLIYGLGVINRQEYEDAELLMALREELNHDGNEYAFTDDEILGPFGELHCVAALPPPPQFEPADSSLYAMQIQRYQQAVRSTMVLSLTELISKISLKKAFQK", "soluble on expression in E. coli": "not soluble"},
      {"sequence": "MGSDKIHHHHHHMKMNIPVIFQFLKDLSANNNREWFNEHRSEYEVARAEFDNFLATVIARISLFDETIRGIQPKDCTYRIYRDTRFSADKTPYKIHFGGYINAKGKKSDHCGYYVHLQPDGSMLAGGSLCLPPNVLKAVRQAIYDNVEEYISIVEDPEFKKYFPVVGEDFMKTAPKGFPKDFKYIDYLKCRQFVCSYLVPDDFFTRADMMEQIEKAFRQFKRFADFINYTIDDFE", "soluble on expression in E. coli": "not soluble"},
      {"sequence": "MLKGEDIGIDLGTASVLIYVRGKGIVLKEPSVIAVVQGKREVKAVGAEAYRMLGRTPGNIVAVRPLKDGVIADYALTEKMLLLFLQKVLSPMSRLFKGRVRIMVGVPSGVTDVERRAVVQAVSTLAHKVYLIEEPLAAAIGAGINVAEPTGSMVVDIGGGSTDIAVISLGGIVRSESLRIAGNEMDQAIILHIRQKYNLLIGERTAEELKIRLGRAKLLPGEEKEVAEVRGRDLLTGLPRTAEIPAEDIVEALQEPLSKIFQGVRNVLESTPPELASDIYERGILLTGGGALLRNLDVALQKATGVPVVVTENPIEAVALGTGKALEMLHVLEDTILSSDDVLRR", "soluble on expression in E. coli": "soluble"},
      {"sequence": "MGSDKIHHHHHHMKFMKSLEPLNNHDETAAGDAMRGPSGGGNSASILNEAENILRDYYGGAIESLFIERLVVGVFFTGVKLSNGCGGVAYTPPETIRNASRRILRGSPSAIRGKSADVVISGKIPSPFADVIRLAAINALSVPFFQDGRYDFEKSDDLSDVSHLFTGRRVCMVGAIVPLLKRFKKMGVSEIKVIDRKKDSQIEVELACGEFLSPEQTAETIAQCETAVFTGAAVANGTIEHLLRLVPKEAAVAVVGPTAGFIPDPLFRRNVALVGTAMVTDIAAALDIIAEGGGAYPLFGRCVKKINILNRKRIEQLKPGSKTA", "soluble on expression in E. coli": "not soluble"},
      {"sequence": "GPGSMVKKMGRDEARAGVERRPPPMLKAERQAAFRRKVRNELLLSGRERKDAERQRMEEFRRLCKAEGIQSKRLQEYDAMREEAANKLGEKLNHIEYDQSLTNAEKRKRRYNLKRNYAGQTVMDLVQKQEKHHNALTKVEKIRKKRQEEIEAARVAKRERDEMKVKRIKERMAQNALYAQRTRKGQPVMSGRVEALLNKIQRNQQQ", "soluble on expression in E. coli": "soluble"},
      {"sequence": "SNRIYTLFLQRNPDFKGGVSIAGHSLGSLILFDILTNQKDSLGDIDSEKDSLNIVMDQGDTPTLEEDLKKLQLSEFFDIFEKEKVDKEALALCTDRDLQEIGIPLGPRKKILNYFSTRKNSMGIKRPAPQPASGANIPKESEFCSSSNTRNGDYLDVGIGQVSVKYPRLIYKPEIFFAFGSPIGMFLTVRGLKRIDPNYRFPTCKGFFNIYHPFDPVAYRIEPMVVPGVEFEPMLIPHHKGRKRMHLELREGLTRMSMDLKNNLLGSLRMAWKSFTRAPYPALQASETPEETEAEPESTSEKPSDVNTEETSVAVKEEVLPINVGMLNGGQRIDYVLQEKPIESFNEYLFALQSHLCYWESEDTVLLVLKEIYQTQGIFLDQPLQ", "soluble on expression in E. coli": "soluble"},
      {"sequence": "MSELTIGLILPDVLGTYGDDGNALVLRQRARLRGISAEIHTVRLGEAVPEGLDLYCLGGGEDTAQILAAEHLNNDRGLRRAADSGRPILGICAGLQVLGRSFRASGKIVEGVGLIDATTASLAKRTIGELQSTPTAAGFTAELTEPLTGFENHMGATILGPDAQPLGAVTRGVGNTDLHGITTASVSDEQVSYEGAVQGNVVCTYMHGPALARNPQLADLLLAKAMGIALADLAPLDLPVVDQLRKERLA", "soluble on expression in E. coli": "not soluble"},
      {"sequence": "MASYTSEQAEALLKLQFDKYAKFIDDEVWAEVEGYYHPSGVLVHKGKEAVYGNKDKSTYIAKFAEGTGKSVGTTTNAKYEGSGDYLIITADFSSETEKAGTVKGRFVQI", "soluble on expression in E. coli": "not soluble"},
      {"sequence": "MDPLDDLLTQLEGVEEEELKPVNRAPRLLNMEEACENQGSSEKPSDSSSKNRYEDDDSDDEELYVKKRELTEQGALLKRHLEKNSSTSGPKATDAWKTNKKSVLTGLTKPSTDTVTVGIVRFDKFQISIRNPKISATSFGAFTAGMKLEKLSNLKPTSNFKEAWCTIGVIVEKGFKKKSANGNDFLIWKLHDLKDCQTQPVKLLMFGDAIKDHWEIKLGSVIALISAQIADDSTASGAKKTVSATLKVAKSNNIVEIGQSAHFGTCKGIRQQDGQRCSNFVNSSLSEFCVFHVMSAARKLSAKRGVFNAVTCGPNVGGLSFNKKPGTPRPPISSRPGISGSGLATSSGSPMLRDTMRPADSFTLTTPTSGLKKITKEEEKSSLNDLLSQRKNTFAARQMLKLKEKKDEKLAESVEEMIEFLGTTGGEEKPSVHSSFGEFLAADTRREKAATVDLRASSATSGTSASSPGGSKLWTMSLANKKAAPLGHKDAQEHAARLRAIAILKAKRKEAEMEKLTGGGGGVKRKASGTPTAPEPEAKKPRSQKMDEIRAMLARKSTHHKEAEKAEHDMLQRHLTGMEEREKVETFTTTCVEVKNVKVVTCNQCKYTSQFASSECIKKEHKLIKHTADKRFFKCTGCKKRTVCFEMMPVKHCAHCNENKWERVAMKDERKVVLDTENLLLRGEERPFVGS", "soluble on expression in E. coli": "not soluble"},
      {"sequence": "MDIFMTCSICGFTHNCICAHQPNLSSNIEFALLYHENERHKLTNTGKLLLNSLSNTTEYTWQRKEPPQALISKINQADTETWLLFPSKEPVLSSDFHHRHDPSKKQLFVLLDATWQEAKKMVNKSPWLKALPCLEIQTDEASRYHLRRNQSEGNLCTCEAGIEVLEMVKEPENAQALSCYYDQFLTVFQAERSGHKFTSLEHHHHHH", "soluble on expression in E. coli": "soluble"},
      {"sequence": "MGSDKIHHHHHHMPENYTPAAAATGTWTEEEIRHQPRAWIRSLTNIDALRSALNNFLEPLLRKENLRIILTGAGTSAFIGDIIAPWLASHTGKNFSAVPTTDLVTNPMDYLNPAHPLLLISFGRSGNSPESVAAVELANQFVPECYHLPITCNEAGALYQNAINSDNAFALLMPAETHDRGFAMTSSITTMMASCLAVFAPETINSQTFRDVADRCQAILTSLGDFSEGVFGYAPWKRIVYLGSGGLQGAARESALKVLELTAGKLAAFYDSPTGFRHGPKSLVDDETLVVVFVSSHPYTRQYDLDLLAELRRDNQAMRVIAIAAESSDIVAAGPHIILPPSRHFIDVEQAFCFLMYAQTFALMQSLHMGNTPDTPSASGTVNRVVQGVIIHPWQA", "soluble on expression in E. coli": "not soluble"},
      {"sequence": "MGENSLWNVYKTVSFWKVMKNFIIIQIARYTPCLSVKNWLYRTFLRMKVGKKTSFALMVMPDIMFPEKITVGENSIIGYNTTLLAHEYLIREYRLGEIVIGNEVMIGANVTILPGVKIGDGATVSAGTLVHRDVPSGAFVGGNPMRIIYTKEQMTAREGLEHHHHHH", "soluble on expression in E. coli": "not soluble"},
      {"sequence": "MGSDKIHHHHHHMGQVSGCFATSYAEARQKFLAAARGAGATLAEFPHPTRRGSAGEDLAMDVAWVGPADARRVLIISSGVHGVEGFCGSGAQVALLSDSILLADCAEARLGLLVVHAVNPYGFSHLRRVNEDNVDLNRNFMDFAQPLPDNAPYAEIAPMLLPTHWPPSGEEQAQFMKAVAEKGMDWYQTAVSSGQYQDPKGLFYGGNKETWSNYTLRRVLARFGSARGSLRWIDIHTGLGPWGYGEPICMGPDDDGQLKRTRAIWGGEVTSIYDGSSSSARLTGLAWEAVPGTLPDVDYAGIALEFGTLPVAEVLDALRGDHWLYLHPEADENQRTLVRQAMWRAFYGDAYDWRAGVVEQVTEAVRKAMRAR", "soluble on expression in E. coli": "not soluble"},
      {"sequence": "MGSDKIHHHHHHMSITPHRLPVAPVIVREAYLSLLRKGWRPGDRDLKTPRNVKIETGIIEKAEGSALVKLGKTQVIAGVKAGVGAPFKDTPNQGVLTVHAEFVPLASPVFEPGPPDENAIELARVVDRSLREVGAVDLESLVIRPGEKVWVLWVDLYIIDHDGNLFDASMLATMAVLLTARLPRYEESETGEIIISKEGEGEELKVKTRVVTVTTAKIDRYIVVDPNIEEEAVSDVRLVTAVDENGRIVGLQKTGMGSLTEADIETMIGYSLEASKVYFKALEEAIKP", "soluble on expression in E. coli": "not soluble"},
      {"sequence": "MSLSKKFYPNSQAFLLEKKDLKTIDRKINANKGNFGHIYIVANASAGTLAGLGALNFGAGLVSLVAQKSFSPLLMLKEKIENNASAIALGMGLENLDFLKDEILQNTPLILDANCFLSEALLWYLNRKDVVITPHPKEFIKLYKMCFDENLDIETLQKNRFFYARKFSQNYDCVLVLKGANPIIVQKEKLFVVNLGNQALAKGGSGDVLSGMIAAHLGFGFSALEAAKNATLAHGLVAKKYKFNKNSFDALKLIKGLKCLEGHHHHHH", "soluble on expression in E. coli": "not soluble"},
      {"sequence": "MLIRVEIPIDAPGIDALLRRSFESDAEAKLVHDLREDGFLTLGLVATDDEGQVVGYVAFSPVDVQGEDLQWVGMAPLAVDEKYRGQGLARQLVYEGLDSLNEFGYAAVVTLGDPALYSRFGFELAAHYDLHCRWPGTESAFQVHRLAEDALEGVTGLVEYHDHFNRF", "soluble on expression in E. coli": "not soluble"}
    ]}
  ]
}
